Experimental data taken from PMC8246649 (Biochemistry, 2021).
No end group written: not given here. *: point of attachment. Myristoyl = CCCCCCCCCCCCCC(=O)*

B1: UNC119B, full-length, C-terminal His6 (natural protein)
chain: not shown
B2: FMNL1 peptide Myr-GNAAGSAEQPAGK-FAM (peptide)
peptide: Myristoyl-GNAAGSAEQPAGK(FAM)

Assays:
Assay in all cases: fluorescence polarisation
[1] = target: B1
[2] = target: UNC119A, full-length, C-terminal His6 (human, UniProt Q13432 1-240)
[3] = target: B2

Myristoyl-GAGASAEEKHSRK(FAM) [GNAT1 peptide Myr-GAGASAEEKHSRK-FAM]
binding result [1]: binds | binding result [2]: binds

Myristoyl-GTASSLVSPAGGK(FAM) [NPHP3 peptide Myr-GTASSLVSPAGGK-FAM]
Kd [1]: 170 pM | Kd [2]: 840 pM

Myristoyl-GAAASRRRAK(FAM) [NSMF peptide Myr-GAAASRRRAK-FAM]
binding result [1]: binds | binding result [2]: binds

GCGCSSHPEDK (not fully specified; N-terminal myristoyl on Gly; FAM on the C-terminal Lys) [LCK peptide Myr-GCGCSSHPEDK-FAM]
Kd [1]: 370 pM

Myristoyl-GCTVSAEDK(FAM) [GNAI2 peptide Myr-GCTVSAEDK-FAM]
binding result [1]: binds | binding result [2]: binds

Myristoyl-GGAVSAGEDNDDK(FAM) [PCMTD1 peptide Myr-GGAVSAGEDNDDK-FAM]
Kd [1]: 72600 pM | Kd [2]: 5250 pM

B1
fold lower affinity than to UNC119A [3]: 9.5 fold

Myristoyl-GNAAAAKKGK(FAM) [PKA peptide Myr-GNAAAAKKGK-FAM]
binding result [1]: binds | binding result [2]: binds

B2
binding result [1]: binds | binding result [2]: binds
